Earlier results as cited in publication PMC8322311.
Where two headings read alike, the source gives them in different places.

How the values were obtained:
SHH (Homo sapiens) [1] = biological target: SHH (Homo sapiens) (UniProt Q15465)
SHH (Homo sapiens) [2] = biological target: SHH (Homo sapiens) (UniProt Q15465); remark: listed apart in the source

| Substance | Kd (SHH (Homo sapiens) [1]) | Kd (SHH (Homo sapiens) [2]) |
| --- | --- | --- |
| Glypican-3 (from UniProt P51654) | 32 nM |  |
| HHIP (from UniProt Q96QV1) |  | 6 nM |
